Reference: PMC3458824, “Direct Observation of the Uptake of Outer Membrane Proteins by the Periplasmic Chaperone Skp” (PLoS ONE, 2012)
Numbering of substitutions follows the chain as printed. Numbers in names are those of the source.

T1: Skp-D128C-Cy3 (Escherichia coli, UniProt P0AEU7 21-161, D128C, Cy3 (Cy3-maleimide) on the introduced cysteine at 128)
T1 construct: Skp of Escherichia coli, each monomer 141 residues as printed; Extent of labeling greater than 90%; one dye on each of the three chains of the trimer; also called Cy3 labeled Skp mutant D128C; Skp-Cy3; source: E. coli BL21 (DE3), purified (Ni-NTA), labeled with Cy3-maleimide
T1 sequence (looked up): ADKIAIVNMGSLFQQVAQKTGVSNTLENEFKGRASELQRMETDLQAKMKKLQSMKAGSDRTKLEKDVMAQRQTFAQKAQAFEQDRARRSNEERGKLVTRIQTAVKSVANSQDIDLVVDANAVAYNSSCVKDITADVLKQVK

T2: wild-type Skp (Escherichia coli, UniProt P0AEU7 21-161)
T2 sequence (looked up): T1 sequence (looked up) with C128D

B1: transmembrane domain of OmpA (domain or fragment, Escherichia coli)
chain: APKDNTWYTGAKLGWSQYHDTGFINNNGPTHENQLGAGAFGGYQVNPYVGFEMGYDWLGRMPYKGSVENGAYKAQGVQLTAKLGYPITDDLDIYTRLGGMVWRADTKSNVYGKNHDTGVSPVFAGGVEYAITPEIATRLEYQWTNNIGDAHTIGTRPDNGMLSLGVSYRFGQGEAA
notes: Transmembrane beta-barrel domain of outer membrane protein OmpA of Escherichia coli; PDB 2GE4 is named as the structure of this domain; also called OmpA-TMD; source: E. coli BL21 (DE3), purified (Ni-NTA) in 8 M urea, unfolded
B2: OmpC (natural protein, Escherichia coli, UniProt P06996 22-367, looked up)
chain: AEVYNKDGNKLDLYGKVDGLHYFSDNKDVDGDQTYMRLGFKGETQVTDQLTGYGQWEYQIQGNSAENENNSWTRVAFAGLKFQDVGSFDYGRNYGVVYDVTSWTDVLPEFGGDTYGSDNFMQQRGNGFATYRNTDFFGLVDGLNFAVQYQGKNGNPSGEGFTSGVTNNGRDALRQNGDGVGGSITYDYEGFGIGGAISSSKRTDAQNTAAYIGNGDRAETYTGGLKYDANNIYLAAQYTQTYNATRVGSLGWANKAQNFEAVAQYQFDFGLRPSLAYLQSKGKNLGRGYDDEDILKYVDVGATYYFNKNMSTYVDYKINLLDDNQFTRDAGINTDNIVALGLVYQF
notes: Outer membrane protein OmpC of Escherichia coli; 346 residues as printed; Kept unfolded in 8 M urea and diluted into the Skp solution (final urea 0.38 M in stopped-flow); the printed 346 residues fit the mature protein; also called wild-type OmpC; urea-denatured OmpC; source: E. coli BL21 (DE3), purified (Ni-NTA) in 8 M urea, unfolded
B3: OmpC-D25C-Cy5 (natural protein, Escherichia coli, UniProt P06996 22-367, looked up)
chain: B2 chain with D25C
modifications: Cy5 (Cy5-maleimide) on the introduced cysteine at 25
notes: Outer membrane protein OmpC of Escherichia coli; 346 residues as printed; Extent of labeling greater than 90%; also called Cy5 labeled OmpC mutant D25C; source: E. coli BL21 (DE3), purified (Ni-NTA) in 8 M urea, unfolded, labeled with Cy5-maleimide
B4: Skp-K55C-Cy3 (natural protein, Escherichia coli, UniProt P0AEU7 21-161, looked up)
chain: T1 sequence (looked up) with K55C, C128D
modifications: Cy3 (Cy3-maleimide) on the introduced cysteine at 55
notes: Skp of Escherichia coli, each monomer 141 residues as printed; Extent of labeling greater than 90%; one dye on each of the three chains of the trimer; also called Cy3 labeled Skp mutant K55C; Skp-Cy3; source: E. coli BL21 (DE3), purified (Ni-NTA), labeled with Cy3-maleimide
B5: OmpC-L139C-Cy5 (natural protein, Escherichia coli, UniProt P06996 22-367, looked up)
chain: B2 chain with L139C
modifications: Cy5 (Cy5-maleimide) on the introduced cysteine at 139
notes: Outer membrane protein OmpC of Escherichia coli; 346 residues as printed; Extent of labeling greater than 90%; also called Cy5 labeled OmpC mutant L139C; source: E. coli BL21 (DE3), purified (Ni-NTA) in 8 M urea, unfolded, labeled with Cy5-maleimide
B6: Skp-E82C-Cy3 (natural protein, Escherichia coli, UniProt P0AEU7 21-161, looked up)
chain: T1 sequence (looked up) with E82C, C128D
modifications: Cy3 (Cy3-maleimide) on the introduced cysteine at 82
notes: Skp of Escherichia coli, each monomer 141 residues as printed; Extent of labeling greater than 90%; one dye on each of the three chains of the trimer; also called Cy3 labeled Skp mutant E82C; Skp-Cy3; source: E. coli BL21 (DE3), purified (Ni-NTA), labeled with Cy3-maleimide
B7: OmpC-D290C-Cy5 (natural protein, Escherichia coli, UniProt P06996 22-367, looked up)
chain: B2 chain with D290C
modifications: Cy5 (Cy5-maleimide) on the introduced cysteine at 290
notes: Outer membrane protein OmpC of Escherichia coli; 346 residues as printed; Extent of labeling greater than 90%; also called Cy5 labeled OmpC mutant D290C; source: E. coli BL21 (DE3), purified (Ni-NTA) in 8 M urea, unfolded, labeled with Cy5-maleimide
B8: OmpF (natural protein, Escherichia coli)
chain: AEIYNKDGNKVDLYGKAVGLHYFSKGNGENSYGGNGDMTYARLGFKGETQINSDLTGYGQWEYNFQGNNSEGADAQTGNKTRLAFAGLKYADVGSFDYGRNYGVVYDALGYTDMLPEFGGDTAYSDDFFVGRVGGVATYRNSNFFGLVDGLNFAVQYLGKNERDTARRSNGDGVGGSISYEYEGFGIVGAYGAADRTNLQEAQPLGNGKKAEQWATGLKYDANNIYLAANYGETRNATPITNKFTNTSGFANKTQDVLLVAQYQFDFGLRPSIAYTKSKAKDVEGIGDVDLVNYFEVGATYYFNKNMSTYVDYIINQIDSDNKLGVGSDDTVAVGIVYQF
notes: Outer membrane protein OmpF of Escherichia coli; probably the mature protein as for OmpC (surmise); also called wild-type OmpF; source: E. coli BL21 (DE3), purified (Ni-NTA) in 8 M urea, unfolded

Columns and labels:
[1] = target: Skp-D128C (Escherichia coli) (UniProt P0AEU7); test: fluorescence correlation spectroscopy (FCS); Cy3 labeled OmpC in 8 M urea diluted dropwise into 50 mM PBS pH 7.0, 100 mM NaCl, 0.01% Tween 20 with 0.2 µM reduced Skp; molecular weight of the complex from the diffusion time with free Cy3 as reference
[2] = target: Skp-E82C (Escherichia coli) (UniProt P0AEU7); test: as above
[3] = target: Skp-K55C (Escherichia coli) (UniProt P0AEU7); test: as above
Skp-K55C-Cy3 [4] = target: B4; test: stopped-flow fluorescence (Cy3 self-quenching); OMP in 8 M urea mixed 1:20 with Cy3 labeled Skp mutant; both 0.03 µM final; 50 mM PBS pH 7.0, 100 mM NaCl, 0.01% Tween 20, 25°C; traces fitted to two or three exponentials; conditions: both partners purified
Skp-E82C-Cy3 [5] = target: B6; test: as above; conditions: both partners purified
Skp-D128C-Cy3 [6] = target: T1, Skp-D128C-Cy3; test: as above; conditions: both partners purified
wild-type Skp = target: T2, wild-type Skp; test: cell-based or functional assay
Skp-K55C-Cy3 [7] = target: B4; test: FRET or BRET; stopped-flow FRET; Cy5 labeled OmpC mutant in 8 M urea mixed 1:20 with Cy3 labeled Skp mutant; both 0.03 µM final; 50 mM PBS pH 7.0, 100 mM NaCl, 0.01% Tween 20, 25°C; Cy5 emission, fitted to three exponentials; conditions: both partners purified
Skp-E82C-Cy3 [8] = target: B6; test: as above; conditions: both partners purified
Skp-D128C-Cy3 [9] = target: T1, Skp-D128C-Cy3; test: as above; conditions: both partners purified
OmpC-L139C-Cy5 = target: B5; test: as above; conditions: both partners purified
OmpC-D290C-Cy5 = target: B7; test: as above; conditions: both partners purified

| Molecule | time constant τ1 of the first phase (Skp-K55C-Cy3 [4]) [ms] | time constant τ1 of the first phase (Skp-E82C-Cy3 [5]) [ms] | time constant τ1 of the first phase (Skp-D128C-Cy3 [6]) [ms] | time constant τ1 of the fast phase (Skp-D128C-Cy3 [9]) [ms] | further results |
| --- | --- | --- | --- | --- | --- |
| Cy3 labeled OmpC (from UniProt P06996 22-367) (natural protein) | – | – | – | – | stoichiometry N [1]: 1 OmpC:Skp; stoichiometry N [2]: 1 OmpC:Skp; stoichiometry N [3]: 1 OmpC:Skp |
| B1 | 38.6 ± 2.7 | 61.7 ± 4.2 | 105 ± 7.3 | – | – |
| B2 | 82.6 ± 5.5 | 125 ± 7.8 | 188 ± 12 | – | aggregation of urea-denatured OmpC (1.5 µM) by light scatter at 380 nm, 25°C, with 0, 1.5, 4.5 and 7.5 µM wild-type Skp (wild-type Skp): 5 fold molar excess |
| B3 | – | – | – | 143 ± 10 | time constant τ1 of the fast phase (Skp-K55C-Cy3 [7]): 73 ± 5.1 ms; time constant τ1 of the fast phase (Skp-E82C-Cy3 [8]): 101 ± 6.9 ms |
| B4 | – | – | – | – | binding result (OmpC-L139C-Cy5): binds; binding result (OmpC-D290C-Cy5): binds |
| B5 | – | – | – | 208 ± 14 | – |
| B6 | – | – | – | – | binding result (OmpC-L139C-Cy5): binds; binding result (OmpC-D290C-Cy5): binds |
| B7 | – | – | – | 285 ± 19 | – |
| B8 | 61.3 ± 4.9 | 182 ± 11 | 270 ± 16 | – | – |
